Test results published in publication PMC10514558, “Suramin inhibits SARS-CoV-2 nucleocapsid phosphoprotein genome packaging function”.

Key:
SARS-CoV-2 N CTD = SARS-CoV-2 N CTD (SARS-CoV-2, UniProt P0DTC9 247-364); assay: MST; settings: protein: recombinant; tags: 6xHis; chain copies: 2; label: 5'-Cy5
SARS-CoV-2 N NTD = SARS-CoV-2 N NTD (SARS-CoV-2, UniProt P0DTC9 44-180); assay: MST; 20 nM RNA; no suramin; apparent Kd; settings: protein: recombinant; tags: 6xHis; label: 5'-Cy5

Binder: AUUAAAG (ssRNA) [Cy5-ssRNA 7-mer]
- Kd (SARS-CoV-2 N CTD): 5.3 ± 0.2 µM
- Kd (SARS-CoV-2 N NTD): 30.6 ± 4.9 µM
